Test results from patent US20200157212A1 (Pfizer, published 2020).

T1: Human ROBO2 overexpressed on HEK293 cells (human, UniProt Q9HCK4 22-1378)
T1 construct: also called ROBO2 cells; native ROBO2
T1 sequence: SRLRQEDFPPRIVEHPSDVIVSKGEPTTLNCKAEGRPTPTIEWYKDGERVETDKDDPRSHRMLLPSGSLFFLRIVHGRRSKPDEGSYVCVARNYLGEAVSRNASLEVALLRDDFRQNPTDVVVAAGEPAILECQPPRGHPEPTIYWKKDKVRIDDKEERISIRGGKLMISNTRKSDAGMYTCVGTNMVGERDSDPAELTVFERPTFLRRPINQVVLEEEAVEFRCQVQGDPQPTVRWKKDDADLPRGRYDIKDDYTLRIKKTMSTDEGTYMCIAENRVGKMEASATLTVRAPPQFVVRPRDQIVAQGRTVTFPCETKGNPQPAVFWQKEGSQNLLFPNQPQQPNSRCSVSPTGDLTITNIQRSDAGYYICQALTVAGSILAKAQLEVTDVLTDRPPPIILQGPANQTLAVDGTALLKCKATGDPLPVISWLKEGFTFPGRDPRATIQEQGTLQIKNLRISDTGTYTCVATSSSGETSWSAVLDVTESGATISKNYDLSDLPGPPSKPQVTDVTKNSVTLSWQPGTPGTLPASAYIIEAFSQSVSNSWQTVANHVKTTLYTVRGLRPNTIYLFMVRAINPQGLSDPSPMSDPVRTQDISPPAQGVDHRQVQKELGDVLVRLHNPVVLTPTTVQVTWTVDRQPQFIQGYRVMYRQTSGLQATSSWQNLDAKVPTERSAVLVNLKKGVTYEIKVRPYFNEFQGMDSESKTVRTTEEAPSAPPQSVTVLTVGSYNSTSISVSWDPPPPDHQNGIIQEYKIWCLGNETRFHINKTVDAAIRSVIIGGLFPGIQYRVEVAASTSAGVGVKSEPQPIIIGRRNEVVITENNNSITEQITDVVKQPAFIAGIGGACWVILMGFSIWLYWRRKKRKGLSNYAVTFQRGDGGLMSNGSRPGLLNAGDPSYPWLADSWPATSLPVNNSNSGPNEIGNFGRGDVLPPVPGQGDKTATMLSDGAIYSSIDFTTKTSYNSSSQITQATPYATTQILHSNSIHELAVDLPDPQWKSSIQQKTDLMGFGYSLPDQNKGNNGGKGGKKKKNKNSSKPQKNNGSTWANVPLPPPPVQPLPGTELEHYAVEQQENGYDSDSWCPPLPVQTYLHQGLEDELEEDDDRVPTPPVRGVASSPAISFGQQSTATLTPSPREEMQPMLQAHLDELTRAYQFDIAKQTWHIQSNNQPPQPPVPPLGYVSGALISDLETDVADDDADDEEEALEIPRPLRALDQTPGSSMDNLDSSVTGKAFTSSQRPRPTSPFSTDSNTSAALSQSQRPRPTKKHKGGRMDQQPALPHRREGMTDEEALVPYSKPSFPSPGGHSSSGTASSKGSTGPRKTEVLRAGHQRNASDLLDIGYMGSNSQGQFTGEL


These binders were tested against T1, Human ROBO2 overexpressed on HEK293 … (assay: flow cytometry, Geo MFI ROBO2/ROBO1 HEK293 cells, 2.5 µg/ml).
Method: Binding of the antibodies was detected using a secondary fluorochrome conjugated anti-human IgG F(ab′)₂ antibody and samples were analyzed on a Fortessa cytometer (BD Biosciences). The fold ROBO2 selectivity was calculated as the geometric mean fluorescence intensity (Geo MFI) with ROBO2 cells/Geo MFI with ROBO1 cells. A fold change higher than 3 was considered to be ROBO2 specific (Table 2, Fold Selectivity). Some affinity matured clones had increased ROBO1 reactivity, for example Abcs 55, CTI-R2-10 and CTIR2-13.
HTRF assays were run with 5 nM d2-labeled SLIT2-N and antibodies were added at 1 nM. […] Antibodies derived from chain (Abcs series) or CDR shuffling (CTIR-2 series) were evaluated in 11-point, 5-fold dilution series with a top concentration of 1500 nM, N.T. = not tested; ^cFold selectivity was calculated as Geometric Mean Fluorescent Intensity (Geo MFI) of ROBO2/Geo MFI of ROBO1 binding. […] Outcomes: results are listed in order of assays listed in the table (left to right), I.A. = Improved Affinity

Binder	Fold Selectivity for ROBO2/ROBO1 [fold]
Abcs20 (antibody, human IgG1, kappa, V domains shown, chain-shuffled IgG) VH: EVQLVQSGAEVKKPGASVKVSCKASGYTFTGYYMHWVRQAPGQGLEWMGWINPKNGDTEFPQKFQGRVTMTRDTSITTAYMDLSRLRSDDTAVYYCARESGDDAFDIWGQGTMVTVSS VL: DIVMTQSPSSLSASVGDRVTITCRASQSISSYLNWYQQKPGKAPKLLIYAASSLQSGVPSRFSGSGSGTDFTLTISSLQPEDFATYYCQQSVGLSFGGGTKVEIKR	5.2
Abcs35 (antibody, human IgG1, kappa, fully human IgG1; VH of Ab96 with VL of Ab123) heavy: EVQLVQSGAEVKKPGASVKVSCKASGYTFTGYYMHWVRQAPGQGLEWMGWINPKNGDTEFPQKFQGRVTMTRDTSITTAYMDLSRLRSDDTAVYYCARESGDDAFDIWGQGTMVTVSSASTKGPSVFPLAPSSKSTSGGTAALGCLVKDYFPEPVTVSWNSGALTSGVHTFPAVLQSSGLYSLSSVVTVPSSSLGTQTYICNVNHKPSNTKVDKKVEPKSCDKTHTCPPCPAPEAAGAPSVFLFPPKPKDTLMISRTPEVTCVVVDVSHEDPEVKFNWYVDGVEVHNAKTKPREEQYNSTYRVVSVLTVLHQDWLNGKEYKCKVSNKALPAPIEKTISKAKGQPREPQVYTLPPSREEMTKNQVSLTCLVKGFYPSDIAVEWESNGQPENNYKTTPPVLDSDGSFFLYSKLTVDKSRWQQGNVFSCSVMHEALHNHYTQKSLSLSPGK light: DIVMTQSPSSLSASVGDRVTITCRASQSISSYLNWYQQKPGKAPKLLIYAASSLQSGVPSRFSGSGSGTDFTLTISSLQPEDFATYYCQQSVGLFFGGGTKVEIKRTVAAPSVFIFPPSDEQLKSGTASVVCLLNNFYPREAKVQWKVDNALQSGNSQESVTEQDSKDSTYSLSSTLTLSKADYEKHKVYACEVTHQGLSSPVTKSFNRGEC	4.8
Abcs25 (antibody, human IgG1, kappa, V domains shown, chain-shuffled IgG) VH: EVQLVQSGAEVKKPGASVKVSCKASGYTFTGYYMHWVRQAPGQGLEWMGWINPKDGDTEFPQKFQGRVTMTRDTSITTAYMDLSRLRSDDTAVYYCARESGDDAFDIWGQGTMVTVSS VL: DIVMTQSPSSLSASVGDRVTITCRASQSISSYLNWYQQKPGKAPKLLIYAASSLQSGVPSRFSGSGSGTDFTLTISSLQPEDFATYYCQQSVGLSFGGGTKVEIKR	3.3
Abcs40 (antibody, human IgG1, kappa, V domains shown, chain-shuffled IgG) VH: EVQLVQSGAEVKKPGASVKVSCKASGYTFTGYYMHWVRQAPGQGLEWMGWINPKDGDTEFPQKFQGRVTMTRDTSITTAYMDLSRLRSDDTAVYYCARESGDDAFDIWGQGTMVTVSS VL: DIVMTQSPSSLSASVGDRVTITCRASQSISSYLNWYQQKPGKAPKLLIYAASSLQSGVPSRFSGSGSGTDFTLTISSLQPEDFATYYCQQSVGLFFGGGTKVEIKR	4.8

Other lines, results leading:

Fold Selectivity for ROBO2/ROBO1 [fold]	Binder
1.5	Abcs55 (antibody, human IgG1, kappa, V domains shown, chain-shuffled IgG) VH: EVQLVQSGAEVKKPGASVKVSCKASGYTFTGYYMHWVRQAPGQGLEWMGWINPKDGDTEFPQKFQGRVTMTRDTSITTAYMDLSRLRSDDTAVYYCARESGDDAFDIWGQGTMVTVSS VL: DIVMTQSPSSLSASVGDRVTITCRASQSISSYLNWYQQKPGKAPKLLIYAASSLQYGVPSRFSGSGSGTDFTLTISSLQPEDFATYYCQQSYSTSFGGGTKVEIKR
6.2	CTIR2-16 (antibody, human IgG1, kappa, V domains shown, CDR-shuffled IgG) VH: EVQLVQSGAEVKKPGASVKVSCKASGYTFRGYAMHWVRQAPGQGLEWMGWIDPRTGLTKFPQKFQGRVTMTRDTSITTAYMDLSRLRSDDTAVYYCARESGDDAFDIWGQGTMVTVSS VL: DIVMTQSPSSLSASVGDRVTITCRASQKISSYLNWYQQKPGKAPKLLIYAASSLQYGVPSRFSGSGSGTDFTLTISSLQPEDFATYYCQQSVGLFFGGGTKVEIKR
23.9	CTIR2-14 (antibody, human IgG1, kappa, V domains shown, CDR-shuffled IgG) VH: EVQLVQSGAEVKKPGASVKVSCKASGYTFRGYAMHWVRQAPGQGLEWMGWIDPRTGLTKFPQKFQGRVTMTRDTSITTAYMDLSRLRSDDTAVYYCARESGDDAFDIWGQGTMVTVSS VL: DIVMTQSPSSLSASVGDRVTITCRASQKISSYLNWYQQKPGKAPKLLIYAASSLQYGVPSRFSGSGSGTDFTLTISSLQPEDFATYYCQQSLELGFGGGTKVEIKR
12.1	CTIR2-15 (antibody, human IgG1, kappa, V domains shown, CDR-shuffled IgG) VH: EVQLVQSGAEVKKPGASVKVSCKASGYTFRGYAMHWVRQAPGQGLEWMGWIDPRTGLTKFPQKFQGRVTMTRDTSITTAYMDLSRLRSDDTAVYYCARESGDDAFDIWGQGTMVTVSS VL: DIVMTQSPSSLSASVGDRVTITCRASQKISSYLNWYQQKPGKAPKLLIYAASSLQYGVPSRFSGSGSGTDFTLTISSLQPEDFATYYCQQSVGLSFGGGTKVEIKR
